The values below come from the supplement of paper PMC9112550, “Optimization of the antimicrobial peptide Bac7 by deep mutational scanning” (BMC Biology, 2022).
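Also: peptides expressed intracellularly from a pBAD plasmid library in pooled LB shake-flask culture, induced with 0.3% L-arabinose, DNA abundance read by NGS, three biological replicates, DESeq2 with apeglm shrinkage.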

The data set deals with Escherichia coli TOP10. The data set can be described thus: shrunken log2 fold change of peptide-encoding DNA abundance (4.5 h post-induction vs induction); higher = less antimicrobial activity (less host growth inhibition). Conditions: time post-induction: 4.5 h; library: site-saturation at positions 5, 18, 19, 20.
For RRIRLRPPRLPRPRPRPSNRPRP, the “shrunken log2 fold change” value is -0.599. Under RRIRIRPPRLPRPRPRPSNVPRP stands -0.683; under RRIRRRPPRLPRPRPRPRVYPRP, 0.335. Under RRIRCRPPRLPRPRPRPKQSPRP stands 0.107; under RRIRVRPPRLPRPRPRPPSAPRP, 0.47. For the sequence RRIRNRPPRLPRPRPRPYWFPRP, the “shrunken log2 fold change” value was -0.124.

In the case of RRIRVRPPRLPRPRPRPCASPRP, the “shrunken log2 fold change” value was determined as 0.116. Turning to RRIRGRPPRLPRPRPRPKICPRP, the “shrunken log2 fold change” value is -0.0723. For RRIRIRPPRLPRPRPRPMCKPRP, the “shrunken log2 fold change” value was -0.262.

For the sequence RRIRKRPPRLPRPRPRPHGSPRP, the “shrunken log2 fold change” value was -0.0695. On to RRIRIRPPRLPRPRPRPGCAPRP, for which the “shrunken log2 fold change” value was 0.185. With RRIRSRPPRLPRPRPRPPFMPRP, the “shrunken log2 fold change” value is -0.0803. The figure for RRIRRRPPRLPRPRPRPGEWPRP is 0.701; for RRIRGRPPRLPRPRPRPNFVPRP it is -0.0668. Consider RRIRTRPPRLPRPRPRPSWQPRP, for which the “shrunken log2 fold change” value is -0.073. The figure for RRIRWRPPRLPRPRPRPIQTPRP is -0.0178; for RRIRARPPRLPRPRPRPCNKPRP it is -0.43; for RRIRLRPPRLPRPRPRPCTGPRP it is -0.0081. For RRIRCRPPRLPRPRPRPKCNPRP, the “shrunken log2 fold change” value is -0.201. Under RRIRFRPPRLPRPRPRPDYMPRP stands -0.432. For the sequence RRIRTRPPRLPRPRPRPITNPRP, the “shrunken log2 fold change” value is -0.489. As for RRIRNRPPRLPRPRPRPFTWPRP, the “shrunken log2 fold change” value is -0.62. With RRIRCRPPRLPRPRPRPQQEPRP, the “shrunken log2 fold change” value was -0.051. Regarding RRIRCRPPRLPRPRPRPRDLPRP, the “shrunken log2 fold change” value worked out at 0.108. Under RRIRSRPPRLPRPRPRPGPPPRP stands 0.46. The figure for RRIRTRPPRLPRPRPRPNKSPRP is -0.315; for RRIRPRPPRLPRPRPRPGDAPRP it is 0.398. The figure for RRIRRRPPRLPRPRPRPSGMPRP is -0.0586.

On to RRIRTRPPRLPRPRPRPWVLPRP, for which the “shrunken log2 fold change” value is -0.0462.

Take RRIRMRPPRLPRPRPRPPNWPRP: the “shrunken log2 fold change” value came to 1.03. The figure for RRIRLRPPRLPRPRPRPPFWPRP is 0.308; for RRIRSRPPRLPRPRPRPYCSPRP it is -0.094; for RRIRDRPPRLPRPRPRPYFRPRP it is -0.318.

As to RRIRMRPPRLPRPRPRPQATPRP, the “shrunken log2 fold change” value is -0.00147. The figure for RRIRNRPPRLPRPRPRPHVPPRP is -0.528; for RRIRWRPPRLPRPRPRPAPSPRP it is 0.393.

Consider RRIRGRPPRLPRPRPRPTCCPRP, for which the “shrunken log2 fold change” value stood at 1.2. Take RRIRMRPPRLPRPRPRPRYEPRP: the “shrunken log2 fold change” value is -0.0771. On to RRIRHRPPRLPRPRPRPARGPRP, for which the “shrunken log2 fold change” value is 0.319. On to RRIRLRPPRLPRPRPRPYNLPRP, for which the “shrunken log2 fold change” value is -0.417. Under RRIRNRPPRLPRPRPRPGINPRP stands -0.253; under RRIRHRPPRLPRPRPRPCPGPRP, -0.541; under RRIRVRPPRLPRPRPRPVFGPRP, -0.0383. For the sequence RRIRERPPRLPRPRPRPWATPRP, the “shrunken log2 fold change” value stood at 0.127. The figure for RRIRCRPPRLPRPRPRPRGRPRP is 0.46; for RRIRIRPPRLPRPRPRPICAPRP it is 0.0269. RRIRCRPPRLPRPRPRPAECPRP: the “shrunken log2 fold change” value was -0.223.

On to RRIRHRPPRLPRPRPRPIIPPRP, for which the “shrunken log2 fold change” value was -0.197.

As for RRIRERPPRLPRPRPRPSDSPRP, the “shrunken log2 fold change” value was -0.186. For the sequence RRIRMRPPRLPRPRPRPTFTPRP, the “shrunken log2 fold change” value was determined as 0.141.
